Effective KD of the LD2 motif data for one substance are collected here from PMC11722443.

The assay concerns the target Paxillin (PXN) N-domain, residues 1-311 (human) (UniProt P49023). Description: NMR titration.

Take “Focal adhesion targeting (FAT) domain of focal adhesion kinase (FAK) (domain or fragment)”: the effective KD of the LD2 motif is 7 mM.
